Patent US20170252327A1, “Methods of Modulating Gastrointestinal Tract Flora Levels with Alkaline Phosphatase” (priority 2008, published 2017)
Entries after “also recorded” stand apart in the source; their conditions may differ.

Key:
[1] = tested on: streptomycin-resistant S. typhimurium; experiment: Growth of Salmonella typhimurium in streptomycin-treated WT mice with or without cIAP; format: in vivo; conditions: for Growth of pathogenic S. typhimurium: cIAP in the drinking water
Description: Restoration or maintenance of the normal gastrointestinal tract flora by IAP was postulated to inhibit infection by pathogenic bacteria because pathogenic bacteria would likely face competition for ‘food and shelter’ (e.g., nutrition, epithelial attachment sites, space, etc.) and antibacterial factors produced by commensal organisms. Accordingly, groups of WT mice (n=5) were treated with streptomycin (5 mg/ml) for 3 days, followed by oral gavage of 500,000 CFU of streptomycin-resistant S. typhimurium in the presence of cIAP (200 U/ml for cIAP^+ Group) or absence of cIAP (20 μl /ml ‘vehicle for cIAP’ (50 mM KCl, 10 mM Tris-HCl (pH 8.2), 1 mM MgCl2, 0.1 mM ZnCl2, and 50% glycerol) in drinking water for control cIAP^− Group). The presence of S. typhimurium was monitored in the stools of these animals by plating stools on Hektoen plates containing streptomycin (100 μg/ml).

[2] = tested on: streptomycin-resistant E. coli; experiment: Colonization of E. coli in antibiotic-treated WT mice supplemented with cIAP; format: in vivo; conditions: WT mice after streptomycin and ciprofloxacin, p<0.015
Description: To determine the temporal effects of IAP on the restoration of commensal gut flora, groups of WT animals (n=6) were treated with streptomycin (5 mg/ml) and ciprofloxacin (0.5 mg/ml) for three days followed by oral gavage of small doses (20,000 CFU) of streptomycin-resistant E. coli for two alternate days (FIG. 4C; Day 0 and Day 2) in the presence or absence of cIAP.

[3] = tested on: Gram-negative bacteria (mostly E. coli); experiment: Restoration of commensal Gram-negative gut flora in streptomycin-treated WT mice with or without cIAP (MacConkey agar); format: in vivo; conditions: for Number of animals with commensal Gram-negative bacteria / restoration of gut flora, cIAP+ vs cIAP- Group: after streptomycin for three days, cIAP 200 U/ml, p<0.00004
Description: Accordingly, experiments were performed in which groups of WT mice (n=10) were treated orally with the antibiotic streptomycin in the presence or absence of cIAP. Streptomycin (5 mg/ml) and cIAP (200 U/ml for cIAP^+ Group, n=5) or ‘vehicle for cIAP’ (20 μl/ml ‘vehicle for cIAP’ (50 mM KCl, 10 mM Tris-HCl (pH 8.2), 1 mM MgCl, 0.1 mM ZnCl2, and 50% glycerol) in drinking water for control cIAP^− Group, n=5) were administered in the animals' drinking water and fecal cultures were performed.
Individual stool samples were cultured each day on MacConkey agar media. […] After discontinuation of antibiotic treatment, the time of appearance (Day) of Gram-negative bacteria (mostly E. coli, occasionally P. mirabilis) in stool samples was recorded for each animal. The experiment was repeated six times, which raised the total number of animals in each group to 39 (n=39), however, duration of each experiment varied (7-35 days). Data was compiled from all six experiments and the number of animals with E. coli in each group on a specific day was recorded.

gut microbiota [4] = experiment: Restoration of gut flora after ampicillin treatment with or without cIAP (stool culture in LB media); format: in vivo, mice (C57BL/6)
Description: An experiment was performed in which five mice (C57BL/6) of each test group, approximately 6 weeks old, were treated with 1 mg/ml of the antimicrobial drug ampicillin, in the presence or absence of calf intestinal alkaline phosphatase (cIAP) (New England Biolabs, Ipswich, Mass.). Ampicillin was administered orally with the animal's drinking water at a concentration of 1 mg/ml, and 250 units of cIAP were administered twice daily as oral gavage. Individual stool samples of each group were cultured in LB media each day and analyzed for the presence/absence of the gut flora. The gut flora of mice before receiving the antibiotic was considered as a baseline control for normal gastrointestinal tract flora (present in all samples). […] Both treatment groups received ampicillin for 10 days.

gut microbiota [5] = experiment: Restoration of gut flora after streptomycin treatment with or without cIAP (stool culture in LB media); format: in vivo, mice (C57BL/6)
Description: To address the role of intestinal alkaline phosphatase on the gastrointestinal tract flora of mammals, an experiment was performed in which five approximately six week old mice (C57BL/6) of each test group were treated with an antimicrobial drug, streptomycin, in the presence or absence of calf intestinal alkaline phosphatase (cIAP) (Sigma, St. Louis, Mo.). Both streptomycin (5 mg/ml) and cIAP (50 units/ml) were administered orally with the animal's drinking water. Individual stool samples of each group were cultured in LB media each day and analyzed for the presence/absence of gut flora. The gastrointestinal tract flora of mice before antibiotic treatment was considered as a baseline control for the normal gut flora (present in all samples).

[6] = format: physicochemical; conditions: 24 h
Description: IAP activity was determined following the protocol as described by Baykov et al. (Anal Biochem, 171:266, 1988). Briefly, individual stool samples were homogenized in water (10 mg/100 μl), centrifuged and supernatant was collected. Then 25 μl of the stool supernatant (or aqueous cIAP solution) were mixed with 175 μl phosphatase assay reagent containing 5 mM of p-nitrophenyl phosphate (pNPP) followed by determining optical density at 405 nm after a specific time period when the samples usually turned yellow due to release of p-nitrophenol. Protein concentrations of stool supernatants were measured using a kit from Bio-Rad Laboratories (Hercules, Calif.). The specific activity of the enzyme, expressed as pmole pNPP hydrolyzed per minute per μg of protein, and CFU per gm of stool +/− SEM were determined and the results are shown in FIG. 3. As expected, IAP activity is lower in hypothyroid animals (Weeks 6-32, FIG. 3A) as compared to the euthyroid animals (Week 0, FIG. 3A). […] At Week 32 the IAP activity in hyperthyroid animals was approximately 7-fold higher compared to euthyroid animals and 15-fold higher compared to hypothyroid animals. […] On the other hand the fecal bacterial counts in hyperthyroid animals continued to gradually increase, being the highest at Week 32 when the experiment was terminated (FIGS. 3B, 3C, and 3D). […]

[7] = tested on: streptomycin-resistant E. coli; experiment: Survival of gavaged commensal E. coli in IAP-KO mice given oral cIAP; format: in vivo; conditions: oral supplementation of cIAP
Excerpt: Two groups of IAP-KO animals (n=6) were put on drinking water containing cIAP or ‘vehicle for cIAP.’ On Day 2, animals were gavaged with 20,000 CFU of streptomycin-resistant E. coli, which is a commensal bacterium isolated from the stool of a WT mouse, and the presence of streptomycin-resistant E. coli in the stools of these animals was closely monitored. As only a few animals carried E. coli in their stools (FIG. 4B), the animals were gavaged with another dose of 50,000 CFU of E. coli on Day 5, however, again only a few animals shed E. coli in their stools. On Day 8, most of the animals of either group carried no E. coli in their stools. Supplementation of cIAP was stopped and the animals were treated with streptomycin for 3 days, which should kill most of the native flora, but would allow proliferation of the surviving streptomycin-resistant E. coli.

B1: calf intestinal alkaline phosphatase (protein, UniProt P19111 20-506, looked up)
Intestinal-type alkaline …: LVPVEEEDPAFWNRQAAQALDVAKKLQPIQTAAKNVILFLGDGMGVPTVTATRILKGQMNGKLGPETPLAMDQFPYVALSKTYNVDRQVPDSAGTATAYLCGVKGNYRTIGVSAAARYNQCKTTRGNEVTSVMNRAKKAGKSVGVVTTTRVQHASPAGAYAHTVNRNWYSDADLPADAQMNGCQDIAAQLVNNMDIDVILGGGRKYMFPVGTPDPEYPDDASVNGVRKRKQNLVQAWQAKHQGAQYVWNRTALLQAADDSSVTHLMGLFEPADMKYNVQQDHTKDPTLQEMTEVALRVVSRNPRGFYLFVEGGRIDHGHHDDKAYMALTEAGMFDNAIAKANELTSELDTLILVTADHSHVFSFGGYTLRGTSIFGLAPSKALDSKSYTSILYGNGPGYALGGGSRPDVNDSTSEDPSYQQQAAVPQASETHGGEDVAVFARGPQAHLVHGVEEETFVAHIMAFAGCVEPYTDCNLPAPTTATSIPD
notes: calf intestinal alkaline phosphatase enzyme (Sigma)
With B1 the “Salmonella count, less than in cIAP- Group” value ([1]; cIAP 200 U/ml in drinking water, p<0.001) was “approximately 4 log”, the “Growth of pathogenic S. typhimurium” value [1] was “dramatically inhibited” and the “Growth of pathogenic S. typhimurium” value ([1]; listed as IAP) was “inhibits Salmonella typhimurium infection”. The “Colonization of E. coli” value [2] was “temporal enhancement of colonization of E. coli”, the “Colonization of E. coli” value ([2]; listed as IAP) was “temporal enhancement of E. coli colonization” and the “Number of animals with commensal Gram-negative bacteria / restoration of gut flora, cIAP+ vs cIAP- Group” value [3] was “much higher”. The “Number of animals with commensal Gram-negative bacteria / restoration of gut flora, cIAP+ vs cIAP- Group” value ([3]; listed as IAP) was “enhances the restoration of antibiotic-associated loss of gut flora”, the “Day at the end of which all animals showed E. coli in their stools” value ([3]; cIAP+ Group, after discontinuation of streptomycin) was 3 days and the “Gut flora of mice receiving only cIAP” value (gut microbiota [4]; 250 units cIAP twice daily oral gavage, no ampicillin) was “normal gut flora phenotype; also recorded: did not affect normal gut flora”. For the same molecule, the “Effect of cIAP on time for restoring the normal gut flora” value (gut microbiota [4]; with ampicillin) was “significantly reduced the time for restoring the normal gut flora”, the “Gut flora of mice receiving only cIAP” value (gut microbiota [5]; cIAP 50 units/ml in drinking water, no streptomycin) was “normal gut flora phenotype; also recorded: did not affect normal gut flora” and the “Effect of cIAP on reestablishment of normal gut flora” value (gut microbiota [5]; co-administered with streptomycin throughout the treatment period) was “significantly enhanced the early reestablishment of normal gut flora”. For the same molecule, the “cIAP enzymatic activity remaining” value [6] was “approximately 80%”, the “Survival of E. coli in IAP-KO mice” value [7] was “can survive” and the “Survival of E. coli in IAP-KO mice” value ([7]; listed as IAP) was “favors survival of E. coli”.
